Source: the Human Domainome abundance scans (Beltran et al. 2025)

B1: 3'-5' exoribonuclease 1, residues 65 to 114; numbered along this chain, Q8IV48 (parent)
chain: VYKEIAITNGCINRMSKEELRAKLSEFKLETRGVKDVLKKRLKNYYKKQK

Variants of: B1
Assay: abundance fitness (aPCA) (normalised: wild type 0, dead -1); higher = more abundant; growth selection in yeast, the domain comes from the species named
Settings: Homo sapiens

Abundance fitness, by site and new letter:
E26: D -0.119; C -0.31; L -0.22; Q -0.102; K -0.273; P -0.964; T -0.189; H -0.267; I -0.432; R -0.472; S -0.185; M -0.267; W -0.406; Y -0.153; G -0.24; V -0.362; A -0.202; N -0.273; F -0.169
E30: L -0.67; G -0.562; P -0.283; F -0.501; M -0.685; R -0.685; K -0.401; I -0.732; N -0.16; H -0.689; Q -0.359
L24: P -0.984; K -0.973; M -0.507; N -1.03; D -1.05; C -0.052; G -0.97; Q -0.927; Y -0.896; I -0.88; R -0.96; W -0.902; A -0.704; E -0.986; V -0.813; S -0.488; H -0.772; T -0.832
K23: G -0.861; R -0.101; L -0.176; W -0.234; S -0.318; E -0.56; H -0.154; V -0.182; T -0.172; P -0.941; Q -0.11; C -0.158
L29: C -0.256; F -0.688; Y -0.874; Q -0.196; V -0.561; N -0.827; I -0.349; E -0.737; T -0.884; K -0.666; W -0.694; M -0.198; P -0.999; G -0.875; H -0.974; D -0.878; A -0.827
L20: W -0.835; V -0.568; T -0.913
K28: C -0.127; P -0.963; E -0.178; H -0.057; F -0.407; L -0.732; V -0.817; G 0.038; D -0.156; A -0.141; M -0.194; T -0.338; Y -0.39; Q -0.124; R -0.061; W -0.779; S -0.06
A22: N -0.027; K 0.057; S -0.04; V -0.048; L -0.052; Q -0.044; W -0.209; F -0.12; R -0.031; P -0.948; T -0.055; G -0.118; M -0.047; I -0.057; H -0.049; D -0.122; C -0.032
R21: Y -0.773; V -0.203; M -0.449; S -0.518; L -0.528; W -0.833; T -0.473; N -0.787; G -0.804; C -0.474; P -0.697; Q -0.221; F -0.688; E -0.841; D -0.844; I -0.226; H -0.644
S25: V -0.205; Q -0.034; L -0.083; R 0.022; I -0.315; D -0.096; A 0.032; Y -0.105; C -0.121; W -0.188; P -0.323; G -0.039; E -0.106; M -0.1; H -0.099; K 0.004; T -0.126; N -0.038; F -0.104
F27: I 0.003; S -0.307; H 0.062; Y -0.019; G -0.723; C 0.065; P -0.914; D -0.652; K -0.065; M 0.026; Q -0.166; A -0.065; E -0.036; W -0.453; T -0.483; N 0.007; L 0.148
